Patent publication US10398755

What was measured:
[1] = target: Pro-MMP-9 (recombinant) (Mus musculus (Mouse)) (UniProt P41245); assay: cell-based or functional assay
[2] = target: Pro-MMP-9 (recombinant) (Mus musculus (Mouse)) (UniProt P41245); assay: CLU-His pull-down with anti-His tag antibody beads, gelatin zymography, densitometry; reference: MMP-9 and MMP-9-ΔC

Chain of mouse CLU with C-terminal (His)6 (CLU-His), recombinant secreted clusterin (Q06890 other isoform, or with tags, fused parts or gaps): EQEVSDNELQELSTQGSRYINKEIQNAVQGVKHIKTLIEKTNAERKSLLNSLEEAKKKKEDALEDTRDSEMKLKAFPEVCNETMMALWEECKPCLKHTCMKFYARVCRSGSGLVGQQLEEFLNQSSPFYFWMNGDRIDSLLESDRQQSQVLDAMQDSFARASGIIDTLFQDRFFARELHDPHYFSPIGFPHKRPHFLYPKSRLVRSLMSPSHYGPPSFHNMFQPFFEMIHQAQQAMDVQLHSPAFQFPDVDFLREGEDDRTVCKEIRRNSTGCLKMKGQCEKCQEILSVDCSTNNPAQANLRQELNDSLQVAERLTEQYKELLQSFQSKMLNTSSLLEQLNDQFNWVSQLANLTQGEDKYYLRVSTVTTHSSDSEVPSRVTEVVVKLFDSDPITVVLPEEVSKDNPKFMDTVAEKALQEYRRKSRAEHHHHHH

mouse CLU with C-terminal (His)6 (CLU-His), recombinant secreted clusterin (from UniProt Q06890 22-448)
inhibition of MMP-9 activity; FRET peptide substrate, average of three independent experiments, CLU 50 µg/ml [1]: 35%
inhibition of MMP-9 activity; FRET peptide substrate, pro-MMP-9 with APMA, 3 h, CLU 50 µg/ml (0.63 µM) [1]: 28%
fold stronger affinity for CLU than the other forms of MMP-9 (band densities, Image J) [2]: > 10 times
